# Source: patent publication US20050208610
# Key:
# [1] = tested on: Apolipoprotein CIII purified from plasma derived from multiple human donors
# [2] = tested on: apolipoprotein CIII fragment corresponding to amino acids 41-79 (SEQ ID NO:4), designated CR001
# Chain of apolipoprotein CIII fragment corresponding to amino acids 41-79 (SEQ ID NO:4), designated CR001 (chain, as listed by the source): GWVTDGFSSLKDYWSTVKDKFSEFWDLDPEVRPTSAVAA
# Chain of Apolipoprotein CIII purified from plasma derived from multiple human donors (chain, as listed by the source): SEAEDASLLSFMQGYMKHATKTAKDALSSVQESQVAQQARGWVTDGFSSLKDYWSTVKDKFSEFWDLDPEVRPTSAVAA
substance,measurement,setting,value
factor Xa,factor Xa activity when tested alone on the chromogenic substrate S-2765,[1],neither apoliproprotein CIII nor the apolipoprotein CIII fragment have any direct inhibitory effect on factor Xa activity
same,factor Xa activity when tested alone on the chromogenic substrate S-2765,[2],neither apoliproprotein CIII nor the apolipoprotein CIII fragment have any direct inhibitory effect on factor Xa activity
